Positions count from the first letter of the chain named. Each block holds one binder with its values, some of them ahead of it.
Assays:
[1] = biological target: H12M35-Fc (Homo sapiens / Mus musculus chimera, UniProt P50895;Q9R069, chimera)
[2] = biological target: recombinant Lu extracellular domain fused with a 6xHis-Tag (Sol-Lu) (Homo sapiens, UniProt P50895)
[3] = biological target: T1, recombinant Lu extracellular domain fused with an Fc-Tag (Lu-Fc) (Homo sapiens, UniProt P50895)
[4] = biological target: T1, recombinant Lu extracellular domain …; assay: SPR; BIAcore T200; Lu-Fc immobilized on a CM5 chip; C7 scFv (6.25, 12.5, 25, 50 and 100 nM) injected in 10 mM HEPES pH 7.4, 150 mM NaCl, 3 mM EDTA, 0.005% Tween 20 at 50 μl/min; nonlinear fitting; settings: both partners purified

T1 sequence (P50895 32-547): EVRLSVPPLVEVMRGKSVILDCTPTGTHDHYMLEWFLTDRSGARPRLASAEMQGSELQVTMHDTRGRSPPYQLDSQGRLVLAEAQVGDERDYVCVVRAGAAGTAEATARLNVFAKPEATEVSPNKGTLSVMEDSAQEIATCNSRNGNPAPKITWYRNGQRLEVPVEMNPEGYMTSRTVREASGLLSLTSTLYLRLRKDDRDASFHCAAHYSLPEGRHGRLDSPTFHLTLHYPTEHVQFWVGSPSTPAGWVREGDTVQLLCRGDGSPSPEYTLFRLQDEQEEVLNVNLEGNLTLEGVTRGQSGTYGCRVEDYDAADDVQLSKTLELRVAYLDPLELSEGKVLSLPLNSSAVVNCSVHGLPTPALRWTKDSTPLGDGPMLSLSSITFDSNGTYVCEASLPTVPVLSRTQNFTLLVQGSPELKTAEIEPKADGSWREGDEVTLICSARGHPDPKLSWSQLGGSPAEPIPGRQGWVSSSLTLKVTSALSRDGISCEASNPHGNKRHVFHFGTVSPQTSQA
Chain of recombinant Lu extracellular domain fused with a 6xHis-Tag (Sol-Lu) (P50895 32-547): as above
Chain of H12M35-Fc (Q9R069 other isoform, or with tags, fused parts or gaps chimera): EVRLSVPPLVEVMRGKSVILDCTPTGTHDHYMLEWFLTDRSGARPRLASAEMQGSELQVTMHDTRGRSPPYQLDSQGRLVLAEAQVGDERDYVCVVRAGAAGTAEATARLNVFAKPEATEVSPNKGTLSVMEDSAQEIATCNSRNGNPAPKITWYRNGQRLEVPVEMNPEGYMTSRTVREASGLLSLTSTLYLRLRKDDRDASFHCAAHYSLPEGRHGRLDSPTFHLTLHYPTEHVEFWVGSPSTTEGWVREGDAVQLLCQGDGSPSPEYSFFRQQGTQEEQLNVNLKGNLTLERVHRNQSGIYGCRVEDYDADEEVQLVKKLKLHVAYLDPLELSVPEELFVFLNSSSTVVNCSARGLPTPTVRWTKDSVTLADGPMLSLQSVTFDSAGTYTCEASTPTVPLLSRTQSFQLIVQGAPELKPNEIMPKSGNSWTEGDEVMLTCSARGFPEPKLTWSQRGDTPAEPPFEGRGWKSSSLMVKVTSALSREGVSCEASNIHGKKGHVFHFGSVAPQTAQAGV

binding result [1]: binds
binding result [2]: binds
binding result [3]: binds
B1: A1 (antibody, V domains shown)
VH: QVQLVQSGAEVRRPGSSVRISCRTSGGTFNNYALSWVRQAPGQGLEWMGGIIPIVGTAVYAEKFEDSVTVTADESASTAYMEVRSLRSEDTAVYYCATGEKFVSPWFGDLPLHHWGQGTLVTVSS
VL: QSVLTQPPSVSGAPGQRVTISCTGSSSNIGAPYDVHWYQQVPGTAPKLLIYGNTNRPSRVPDRFSGSKSGTSASLAITGLQADDEADYYCQSYDRSLGGSIFGGGTKLTVL

binding result [1]: binds
binding result [2]: binds
binding result [3]: binds
B2: B8 (antibody, V domains shown)
VH: B1 VH with V2M
VL: B1 VL with V41L, R59G, L108V

Kd [4]: 36.6 nM
koff [4]: 0.0049 s⁻¹
kon [4]: 135000 M⁻¹ s⁻¹
B3: C7 scFv (soluble, purified) (scFv, V domains shown)
VH: B1 VH with V2M, R87G
VL: B1 VL with V41I, R59G
notes: VH of clone C7, as in m3; linker, printed as (Gly4Ser)3; VL of clone C7, as in m3; Single band of 29-30 kDa; monomer by size exclusion chromatography; The 6xHis tag is named in the discussion (6xHis tag antibody); also called the scFv form; the purified C7 scFv; source: E. coli HB2151, periplasmic fraction, purified (His Trap excel)

binding result [1]: binds
binding result [2]: binds
binding result [3]: binds
B4: A4 (antibody, V domains shown)
VH: B1 VH
VL: B1 VL with R59G

— PMC5218393 (PLoS ONE, 2017)
